From the supplement of paper PMC9170038

Tested on: K4 kissing-loop RNA reporter
Assay: apparent KD of K4 kissing-loop reporter; higher = weaker reporter binding
Conditions: Eterna round: R107
Method: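 RNA-MaP round R107: designed RNA switches with theophylline, tryptophan, arginine or FMN aptamers are transcribed on-chip within common flanks. They are titrated with a labelled K4 kissing-loop RNA reporter in RNA-MaP buffer (100 mM Tris pH 7.5, 80 mM KCl, 4 mM MgCl2), without ligand or with the indicated ligand. Median apparent KD per design.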

[1] = input ligand: theophylline 20 uM
[2] = input ligand: tryptophan 2.4 mM
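Also: bound reporter read as fluorescence of individual clusters on recovered sequencing chips by microscopy, with normalized cluster intensities fitted with a binding model.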

Sequence | apparent KD of K4 kissing-loop reporter (input ligand: FMN 200 uM) | apparent KD of K4 kissing-loop reporter (input ligand: arginine 13.2 mM) | apparent KD of K4 kissing-loop reporter (input ligand: none) | apparent KD of K4 kissing-loop reporter [1] | apparent KD of K4 kissing-loop reporter [2]
AGGCACGAGCAAGGAUAUCGAGUAGAGUGAUGUUCUGCCUGGGUUGGCUCGAAAGAGCCUUCUCAGCGAGAAGGUGCUCGUGCCU [#2 Same State - FMN A Attempt #21 (HarryS)] | 248 nM | 604 nM | 982 nM | 638 nM | 751 nM
AGGCACGAGCAAGGAUAUUGAGUAGAGUGAUGUUCUGCCUAAGUUGGCUCGAAAGAGCCUUCUUAGCGAGAAGGUGCUCGUGCCU [#2 Same State - FMN A Attempt #26 (HarryS)] | 297 nM | 534 nM | 666 nM | 812 nM | 763 nM
AGGGUUAAUUAGUCUUUUUUCACAUUAAGUCAGGAUAUCGUAUUUUCGAGAAGGGACACAUGCUAGUGAUGUUAGCUAUUUCCCA [#02 K4 FMN A Exclusion] | 77.3 nM | 115 nM | 90.6 nM | 122 nM | 86.2 nM
AGGUCACUACUACAGUGAUGUUGUGGAGAGCAGGAUAUGCAGAAAUGCAGAAGGGCUCGCUCUCAGUGACCGAAUGAAACAUUCA [Omei KL FMN A SS A v8] | 663 nM | 724 nM | 712 nM | 566 nM | 838 nM
AGGUCCGAGCCCGGAAGGGCUCGGACCUGUUAGGAUAUGACGUGAUUCAGAAGGGAUGGGUGGAGUGAUGUUCCACCCGAGAGGG [#2 Same State - FMN A Attempt #20 (HarryS)] | 105 nM | 89.3 nM | 91.2 nM | 102 nM | 109 nM
AGUACAAUGGCGGCCGCCACUCAACGCAGAUCAAAGAUCUGCAUUCACUCAGUGAUGUUGAGUGAGAGGACCGGGCCUUUGUACA [Omei KL Tryp B SS B v1] | 701 nM | 581 nM | 637 nM | 580 nM | 189 nM
AGUACGGACGCGGCCGCCACUCAGAAGAAGACGGUAGUGAUGUUACUGAUGGUGAGAACAAUAAAGAGGACCGGGUGUCGUGCAA [#06 K4 Tryptophan B Same State] | 324 nM | 464 nM | 523 nM | 370 nM | 304 nM
AGUAGAGCAUCAGAUACCAGACUGAACUGAUGGUAAGGAGUGAUGUUCCUUAAUCAGCUAGUCCCUUGGCAGCUGAUAAUAGUCA [Theo B SS t3] | 251 nM | 253 nM | 268 nM | 183 nM | 222 nM
AGUCCACUCUAAAGAGUGGACCUAAGGGAUACCAGUGAUGUUGGUCACCCUUGGCAGCCCGCUGUCAUCGAUAAAGAUGGCAGUA | 125 nM | 107 nM | 112 nM | 121 nM | 117 nM
AGUCCACUCUAAAGAGUGGACCUAAGGGAUACCAGUGAUGUUGGUCACCCUUGGCAGCCCUCUGUCAUCGAUAAAGAUGGCAGAA | 142 nM | 110 nM | 114 nM | 112 nM | 108 nM
AGUGAAGUUAGUGAUGUGUGAGUUUGGGAAGGAGCGCCGAGGAAGGCAGGUAGGUCGCCCAGUGAUGUUGGUGUAAGGAUGAGAG [whbob_Ex_Arginine_A_2t123] | 451 nM | 332 nM | 311 nM | 262 nM | 303 nM
AGUGAUAUAUGAGGAUAUGGGUUUGUUAAUGAGUUUGUUUUAGUGUUGUUUGGUUAGUGAUGUUAUUUAGAAGGCGUGAGUGAUG [vxxexmullin] | 130 nM | 80.5 nM | 82.4 nM | 127 nM | 72 nM
AGUGCACUGUCAGGAUAUAUACAGUGAUGUUGUGUAUGUCAGCAAGUCAAAGACUUGCUAUUCUGUGUAGAAGGGACUGUGUACA [Omei KL FMN B Exc A v1] | 607 nM | 203 nM | 230 nM | 207 nM | 221 nM
AGUGGACGUGUCUAGAGUGAUGUUCCGGAUACCAGACACGAAAGUGUCCCUUGGCAGCCGGAGUGAUGUUCUGGCGUUCACUAAA [Omei KL Theo A Exc B v6] | 647 nM | 296 nM | 549 nM | 459 nM | 440 nM
AGUGGACGUGUCUGGAGUGAUGUUCUGGAUACCAGACACGAAAGUGUCCCUUGGCAGCCGGAGUGAUGUUCCGGCGUUCACUAAA [Omei KL Theo A Exc B v5] | 462 nM | 239 nM | 402 nM | 396 nM | 307 nM
AGUGUGCAAAAGCACACUCAGCACAAGGACAAGGAUAUCUACUAAUAGAGAAGGUGUCCUUUCCUUAGUGAUGUUAAGGAGCUGA [Omei KL FMN A SS D v1] | 238 nM | 526 nM | 700 nM | 624 nM | 693 nM
AGUGUUGUAUGACGGUUUGUCACUUAGGAUCAGGAUAUAUAAACAAAUAGAAGGGAUGGCGGAGUGAUGUUCCGCCGGCCGCCAU [FMN A Exl V9] | 110 nM | 101 nM | 104 nM | 106 nM | 94.3 nM
AUAAUUAUGACGGCCGCCACUGAGAGUAGUGAUGUUACUCUUUUCCUUUAGUAAUAAUUUUUUAUCAGGACCGGGUUAUUUGAAU [JR_Nu_ExcTryptoB_Sub027] | 68.7 nM | 67.2 nM | 70.2 nM | 64.4 nM | 83.9 nM
AUAGGCAUAGCCCGAGUGAUGUUCGACGAUACCAGCCUCGAUAGAGGCCCUUGGCAGCGUAAAUGAUCAUGAAGCCAAGGAAUUA [whbob_Ex_Theo_A_th70] | 360 nM | 335 nM | 408 nM | 394 nM | 277 nM
AUAUAAGUCGGAGGAUAUCCAGUGAUGUUAUGUUGUGAUGUUUAGUGAUGUUAGGCAUCAGUGAAGGGAGAAGGCCGUAAGUGAU [APPLE] | 68.6 nM | 53.3 nM | 91.1 nM | 89.2 nM | 78.9 nM
AUAUCGGUUGAGAGUGAUGUUCCUUGUGUUCGAGGACCGGUACGGCCGCCACUCGGGUAGAAAAUAAAAGAUGUGUUUGAUUUUU [BDazzled - #14 SS Tryptophan A] | 243 nM | 91.5 nM | 203 nM | 402 nM | 221 nM
AUAUGCUUAGCGGCCGCCACUCCAAUUGGCCGAAAGGCCUGAUACCGAGUGAUGUUCGGUUGGAGGAGGACCGGGCUAGGCGUAU [#2 Exclusion - Tryptophan B Attempt #1 (HarryS)] | 168 nM | 139 nM | 169 nM | 149 nM | 141 nM

Sequence | apparent KD of K4 kissing-loop reporter (input ligand: FMN 200 uM) | apparent KD of K4 kissing-loop reporter (input ligand: arginine 13.2 mM) | apparent KD of K4 kissing-loop reporter (input ligand: none) | apparent KD of K4 kissing-loop reporter [1] | apparent KD of K4 kissing-loop reporter [2]
AUCCGGAGUGCGGCCGCCACUAUCGGAUAGAGUGAUGUUCUAUCCGGCCUUAAAGGCGCGAACGAUAGGACCGGGCACUCUAAAU [Quatinti] | 121 nM | 124 nM | 136 nM | 128 nM | 122 nM
AUGCUUCAGUAAGGAUAUGGAGGCAGAGUGAAGAUUGUCGUGUAACCGAGUUAAGUGAUGUUUGAUCCAGAAGGUACAUGCGUGU [theeternabot_exclusion_KL_FMN_B_15] | 926 nM | 561 nM | 885 nM | 379 nM | 605 nM
AUGUAUGAAUUAGGAUAUCGUGAGCUUUGCAUAUAUAUGAUAAAUGGAUAUGUCGUAGUGAUGUUACGAGAAGGAGUGUGGAGUA [KL-XFMN-B3] | 52.4 nM | 55.7 nM | 43.9 nM | 65.8 nM | 37.4 nM
AUGUCGUUAUAGUGAGUGAUGUUCACUGUGCGAGGACCGGUACGGCCGCCACUCGAGAGUGGUGGACACUGAGUCACUCUGACAC [Tryp A Ex t2] | 124 nM | 123 nM | 130 nM | 111 nM | 283 nM
AUGUCUAAUACGGCCGCCACUCGAGCAGUGAUGUUGCUCAGUAAUGGUCAUCGUCGUACAUGCCCGAGGACCGGGUAUUGAUUUG [Remain] | 147 nM | 122 nM | 140 nM | 145 nM | 175 nM
AUUAAGAUAUGAGUGAUGUUUAUGUCCGAAGGAGCGUGCGAAAGUACAGGUAGGUCGCGGAUGUGAGUGAUGUUUAUGUAAGCGU [KL-XArg-A15 #analogue] | 109 nM | 33.8 nM | 97.1 nM | 65 nM | 83.4 nM
AUUAAUUUCAGAGGAUAUCGUAAUUUUAUUUAAUUUAUUCAUUUGUGCAGUGAUGUUGCUAAUAUUCGAGAAGGCUGAUUUAUAA [whbob_Ex_FMNB__2th223] | 142 nM | 159 nM | 70.8 nM | 171 nM | 65 nM
AUUAAUUUCAGAGGAUAUGCUUUAUUAUUAUUUUUAAAUAAUAUAAGCAGUGAUGUUGCUUUUUAUGCAGAAGGCUGAUUUAUAA [JR_SSFMNB_Sub016] | 137 nM | 397 nM | 383 nM | 384 nM | 360 nM
AUUAUAUAGGCGGCCGCCACUAGUGAUGUUAGUGACUAUAUGAAAACAUAUAGAAUAAAAUAAUAUAGGACCGGGCCAUAAUAUU [AstrosExTryB#4] | 498 nM | 392 nM | 423 nM | 425 nM | 471 nM
AUUAUAUAGGCGGCCGCCACUAGUGAUGUUAGUGACUUUAUGAAAACAUAAAGAAUAAAAUAAUAUAGGACCGGGCCAUAAUAUU [AstrosExTryB#5] | 475 nM | 369 nM | 450 nM | 427 nM | 432 nM
AUUCGUCUCUGAGGAUAUCAGAGGAGAGUGAUGUUCUCCCAUAGCCCAGUGAUGUUGGAUGCUAUCUGAGAAGGCAGUGGGCGAA [Same State FMN B GF 14] | 142 nM | 203 nM | 213 nM | 226 nM | 186 nM
AUUGCACCUGCGGCCGCCACUCACUCCGGGCUGCUGGCCAGUGAUGUUGGUACGGCUGCCGGUUAGAGGACCGGGCAGGAGCUAA [Esage] | 106 nM | 113 nM | 107 nM | 106 nM | 91.3 nM
AUUUAUUCGUACUACUAGUGAUGUUAGUAACGAGGACCGGUACGGCCGCCACUCGAUUUGGCGAUUUUGUAUUUUUUAUUCUAUA [JR_SSTryptoA_Sub011] | 324 nM | 321 nM | 359 nM | 328 nM | 192 nM
AUUUUGGUUUAGAGUGAUGUUCCUUGUAUUCGAGGACCGGUACGGCCGCCACUCGGAUAGAAAAGAAAAGAAAUGUUUGAUUUUU [BDazzled - #8 SS Tryptophan A] | 339 nM | 219 nM | 458 nM | 260 nM | 298 nM
AUUUUUUUAUCAGGAUAUUAGUGAUGUUUGUUUUUGUUAGUGAUGUUGAUAUUUGUUUUAUGUAUUUAAGAAGGGAUUGAGAUGU [sfsmullin] | 46.4 nM | 15.5 nM | 28.2 nM | 19.9 nM | 42.4 nM
AUUUUUUUGUCAGGAUAUUAGUAUGGUUUUGGUUUGUUAGUGAUGUUGAUAUUUUGUUUAUGUAUUUAAGAAGGGAUUUAGCGGU [gyhhgumullin] | 404 nM | 290 nM | 356 nM | 447 nM | 320 nM
CAAAACGAGUGAUGUUCGGACAACAACGUUAAGGAUAUACUUCUCUGUAGAAGGUAACAGUAUUUAUAUUUCAUCAACGAAAAUG [theeternabot_exclusion_KL_FMN_A_12] | 213 nM | 183 nM | 280 nM | 248 nM | 181 nM
CAAACGGGUUGGCUUGGAGACUGCAGACGCAAGGAUAUCGCGAAGACGAGAAGGUGCGGGCCUGGUAGUGAUGUUACAGUUUGGU [theeternabot_sameState_KL_FMN_A_21] | 358 nM | 326 nM | 395 nM | 367 nM | 254 nM
CAAAUAUGCGGUAGGUUCAAGCGCUGGGAAGGAGCGCAGAUGACUGCAGGUAGGUCGCCCAGUGAUGUUGGGCUUUCCACCUAUG [Esisusa] | 132 nM | 109 nM | 107 nM | 136 nM | 100 nM
CACAAUUAAUUACAGUGAUGUUGUAAUCUGCGAGGACCGGUACGGCCGCCACUCGGGCUUGUAGGGCGCCCACAUUCUUAUACUA [theeternabot_sameState_KL_Trp_A_29] | 447 nM | 348 nM | 426 nM | 428 nM | 360 nM
CACUUACGUAGUGAUGUUACGAUCUCUGAUACCAGACAACUCUAAGUCCCUUGGCAGCAGUCAUUUUGCUUAGUAUUUACUCAAA [JR_ExcTheophyA_Sub016] | 679 nM | 650 nM | 791 nM | 605 nM | 512 nM
